# Assay results published in paper doi:10.1101/2025.09.09.675266.
# Where “and” joins values, the source holds several entries; their conditions need not be identical. Equal values may be shown once. Read-outs that look alike come from different tables or passages of the source.
# What was measured:
# [1] = target: RSV IN (1-269) (Rous sarcoma virus (Prague A)); test: SEC
# [2] = target: RSV IN (1-278 aa) (Rous sarcoma virus (Prague A))
# [3] = target: RSV IN (1-278 aa) (Rous sarcoma virus (Prague A)); test: SEC
Substance,stoichiometry N [1],stoichiometry N [2],stoichiometry N [3]
RSV IN (1-269) (domain or fragment),4,,
RSV IN (1-278 aa) (domain or fragment),,2,4 and 8
